Substitutions are numbered along the chain they refer to. In names and notes the source's numbering stands. Entries after “also recorded” stand apart in the source; their conditions may differ. FAM = 5(6)-carboxyfluorescein; Ahx = NCCCCCC(=O)O
Assays:
[1] = test system: U87-MG cells; experiment: Effect of endocytosis inhibitors on PL1-AgNP uptake (flow cytometry); format: cell-based; conditions: pre-incubation with 50 μM Nystatin, 50 μM EIPA, 4 μM Cytochalasin D or 10 μM Chlorpromazine, PL1-AgNPs 37 °C 1 h, etching, three independent experiments
Description: For characterization of the AgNP uptake pathway in glioma cells, the U87-MG cells were cultured until 80–90% confluency and pre-incubated with the following endocytosis inhibitors: (1) 50 μM Nystatin to block caveolae/lipid-mediated endocytosis, (2) 50 μM 5-(N-ethyl-N-isopropyl)-Amiloride (EIPA) to block […], (3) 4 μM Cytochalasin D to block actin polymerization and […], and (4) 10 μM Chlorpromazine to block clathrin-mediated endocytosis. The PL1-AgNPs or control biotin-AgNPs were then added, and the cells were incubated at 37 °C for 1 h and subsequently washed to remove free particles. Some samples were also treated with an etching solution to remove accessible surface-bound AgNPs. The fluorescence of the labeled AgNPs was detected and analyzed using the BD Accuri 6 flow cytometer in the 555 nm channel.

[2] = target: T1, TNC-C WT and mutants (Homo sapiens, UniProt P24821, D1565N/D1571N); experiment: Binding of PL1 nanoworms to recombinant TNC-C proteins; conditions: FAM-labeled NWs, 80 µg/reaction, protein on Ni-NTA beads, fluorescence 485/535 nm, baseline corrected with control protein P32; three independent experiments
T1 construct: Tenascin C C-isoform (TNC-C); made in house; host or cells: E. coli BL21 Rosetta 2 (DE3) pLysS
T1 sequence (P24821 1527-1617 D1565N/D1571N): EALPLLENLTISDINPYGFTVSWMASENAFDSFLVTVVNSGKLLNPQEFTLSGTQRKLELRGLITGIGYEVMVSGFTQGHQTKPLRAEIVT
Description: (§1) Wild type (WT) TNC-C and FN-EDB were prepared as described previously. The DNA inserts encoding for hexahistidine-tagged mutant TNC-C variants (TNC-C E48Q, TNC-C D39N D45N, TNC-C D13N E70Q E88Q) and mutant FN-EDBs variants (FnEDB D68N D70N, FnEDB D52N D49N D12N, FnEDB E42Q D68N E64Q) were synthesized and cloned into pET28a+ expression vectors (GenScript Biotech BV, Netherlands). The resulting plasmids were transformed into the E. coli BL21 Rosetta 2 (DE3) pLysS strain (Novagen, #70956). The protein expression was induced with 0.5 mM IPTG and followed by culturing at 20 °C for 16 h. The bacterial cells were lysed by sonication (Bandelin Sonopuls HD 2070, Merck, Germany) in ice-cold IMAC buffer (25 mM Tris-HCL, 400 mM NaCl, 25 mM imidazole pH 8, protease inhibitors cocktail, DNase I, 1 mM MgCl2). […] The protein concentration was measured by bicinchoninic acid (BCA) assay (Thermo Scientific #23227). The protein purity and size were analyzed using 15% SDS-PAGE.
(§2) The recombinant hexahistidine-tagged TNC-C and EDB WT and mutant proteins (at 60 µg of protein/40 µL beads in PBS) were immobilized to Ni-NTA Magnetic Agarose Beads (QIAGEN, Hilden, Germany) at RT for 1 h. […] The fluorescence of eluted samples was quantified using a Victor X5 Multilabel Plate Reader (PerkinElmer, MA, USA) at an excitation wavelength of 485 nm and an emission wavelength of 535 nm.

[3] = target: T2, FN-EDB WT and mutants (Homo sapiens, UniProt P02751, D1277N/D1314N/D1317N); experiment: Binding of PL1 nanoworms to recombinant FN-EDB proteins; conditions: FAM-labeled NWs, 80 µg/reaction, protein on Ni-NTA beads, fluorescence 485/535 nm, baseline corrected with control protein P32; three independent experiments
T2 construct: Fibronectin Extra Domain B (FN-EDB); made in house; host or cells: E. coli BL21 Rosetta 2 (DE3) pLysS
T2 sequence (P02751 1271-1359 D1277N/D1314N/D1317N): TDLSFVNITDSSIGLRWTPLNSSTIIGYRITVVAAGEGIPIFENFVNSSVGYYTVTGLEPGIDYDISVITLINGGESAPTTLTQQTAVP
Description: as §1, §2

[4] = target: Fibronectin Extra Domain B mutant E42Q D68N E64Q, hexahistidine-tagged (human); experiment: phage binding assay (titre of eluted phage); His-tagged proteins (30 µg/10 µL beads) on Ni-NTA magnetic agarose beads; T7 phage 5 x 10^8 pfu in 100 µL PBS, 1% BSA, 0.1% NP40, RT, 1 h; 6 washes; eluted with 500 mM imidazole; PFU counted; expressed as percent of WT protein
[5] = target: Fibronectin Extra Domain B mutant D68N D70N, hexahistidine-tagged (human); experiment: as above
[6] = target: Fibronectin Extra Domain B mutant D52N D49N D12N, hexahistidine-tagged (human); experiment: as above
[7] = target: T3, PL1-functionalized iron oxide nanoworms (FAM-labelled PL1 peptide on NWs); experiment: fluorescence readout of FAM-labeled PL1-NW binding to protein-coated NiNTA beads; conditions: chain shown with the change; baseline correction with control protein P32; parent: est. 100; read off a plot
T3 chain: PPRRGLIKLKTS

[8] = target: Fibronectin Extra Domain B mutant D52N D49N D12N, hexahistidine-tagged (human); experiment: binding of fluorescent peptide nanoworms to protein-coated beads; His-tagged proteins (60 µg/40 µL beads) on Ni-NTA magnetic agarose beads; FAM-labelled PL1-NW 80 µg/reaction in PBS, 1% BSA, 0.1% NP40; 6 washes; eluted with 500 mM imidazole; fluorescence 485/535 nm; percent of WT after baseline correction with control protein P32
[9] = target: Fibronectin Extra Domain B, wild type, hexahistidine-tagged (human) (UniProt P02751); experiment: fluorescence polarisation; fluorescence anisotropy saturation binding in solution; fixed FAM-PL1, 0-112 µM FN-EDB or 0-275 µM TNC-C; PBS with 0.1% Pluronic F-127; 24 h at 25 °C; non-specific binding with 500 µM Biotin-Ahx-PL1; global fit, single site with ligand depletion
[10] = target: Tenascin C C-isoform, wild type, hexahistidine-tagged; experiment: as above
[11] = target: T4, PL1 peptide displayed on T7 phage; experiment: phage binding to immobilized recombinant protein (Ni-NTA magnetic beads); conditions: chain shown with the change;; parent: est. 100; read off a plot
T4 chain: PPRRGLIKLKTS

Molecule: C=C1[C@@H](C)[C@H]2[C@H](Cc3ccccc3)NC(=O)[C@]23[C@H](OC(C)=O)/C=C/[C@@](C)(O)C(=O)[C@@H](C)C/C=C/[C@H]3[C@@H]1O [Cytochalasin D]
- Effect of inhibitor on the uptake of PL1-AgNPs in U87-MG cells [1]: statistically significant inhibitory effect

Molecule: CCN(c1nc(N)c(C(=O)N=C(N)N)nc1Cl)C(C)C [EIPA, 5-(N-ethyl-N-isopropyl)-Amiloride]
- Effect of inhibitor on the uptake of PL1-AgNPs in U87-MG cells [1]: statistically significant inhibitory effect; also recorded: strongest

Molecule: C[C@@H]1[C@H](O)[C@@H](C)/C=C/C=C/CC/C=C/C=C/C=C/C=C/C(O[C@H]2O[C@H](C)[C@@H](O)[C@H](N)[C@@H]2O)CC2O[C@](O)(CC(O)C(O)CCC(O)CC(O)CC(O)CC(=O)O[C@H]1C)CC(O)C2C(=O)O (stereo partly shown) [Nystatin]
- Effect of inhibitor on the uptake of PL1-AgNPs in U87-MG cells [1]: statistically significant inhibitory effect

Molecule: PL1-NW: iron oxide nanoworms coated with PL1 peptide labeled with FAM fluorophore ({FAM-Ahx}-PPRRGLIKLKTS-OH; also: peptide coated on iron oxide nanoworms)
- Reduction of PL1-NW binding to TNC-C D39N D45N mutant versus WT TNC-C [2]: ~ 100%
- Reduction of PL1-NW binding to FN-EDB D52N D49N D12N mutant versus WT FN-EDB [3]: ~ 76%

Molecule: CN(C)CCCN1c2ccccc2Sc2ccc(Cl)cc21 [Chlorpromazine]
- Effect of inhibitor on the uptake of PL1-AgNPs in U87-MG cells [1]: statistically significant inhibitory effect

B1: PL1 peptide displayed on T7 phage (peptide)
peptide: PPRRGLIKLKTS
- percent increase of binding against WT FN-EDB [4]: 161%
- percent increase of binding against WT FN-EDB [5]: 142%
- percent decrease of binding against WT FN-EDB [6]: 87%

B2: Fibronectin Extra Domain B, wild type, hexahistidine-tagged, P02751 E42Q; D68N; E64Q (protein)
chain: EVPQLTDLSFVDITDSSIGLRWTPLNSSTIIGYRITVVAAGQGIPIFEDFVDSSVGYYTVTGLQPGINYDISVITLINGGESAPTTLTQQT
- percent of parent (% Change over wt FnEDB) [7]: 57

B3: Fibronectin Extra Domain B, wild type, hexahistidine-tagged, P02751 D68N; D70N (protein)
chain: B2 chain with Q42E, Q64E, D70N
- percent of parent (% Change over wt FnEDB) [7]: 29

B4: PL1-functionalized iron oxide nanoworms (FAM-labelled PL1 peptide on NWs) (peptide)
peptide: {FAM-Ahx}-PPRRGLIKLKTS-OH
modifications: also: peptide coated on iron oxide nanoworms
- percent reduction of binding against WT FN-EDB [8]: 76%

B5: FAM-PL1 peptide (free peptide) (peptide)
peptide: {5(6)‑carboxyfluorescein-Ahx}-PPRRGLIKLKTS-OH
- Kd [9]: 1110 nM
- Kd [10]: 1140 nM

B6: Tenascin C C-isoform, wild type, hexahistidine-tagged D13N; E70Q; E88Q (protein)
chain: T1 sequence (P24821 1527-1617 D1565N/D1571N) with D13N, N39D, N45D, E70Q, E88Q
- percent of parent (% Change over wt TNC-C) [7]: 70
- percent of parent (% Change over wt TNC-C) [11]: 33

B7: Tenascin C C-isoform, wild type, hexahistidine-tagged D39N; D45N (protein)
chain: T1 sequence (P24821 1527-1617 D1565N/D1571N)
- percent of parent (% Change over wt TNC-C) [7]: 0

B8: Tenascin C C-isoform, wild type, hexahistidine-tagged E48Q (protein)
chain: T1 sequence (P24821 1527-1617 D1565N/D1571N) with N39D, N45D, E48Q
- percent of parent (% Change over wt TNC-C) [7]: 64
- percent of parent (% Change over wt TNC-C) [11]: 38
